{
  "source": "patent US8461106B2",
  "about": "“Biofilm prevention using lactoferrin” (The Trustees of the University of Pennsylvania, priority 2007, dated 2013)",
  "molecules": {"B1": {"name": "rhLactoferrin: Recombinant human lactoferrin produced in Aspergillus niger, structurally identical to native human lactoferrin (protein, UniProt P02788 20-710, looked up)", "Lactotransferrin": "GRRRSVQWCAVSQPEATKCFQWQRNMRKVRGPPVSCIKRDSPIQCIQAIAENRADAVTLDGGFIYEAGLAPYKLRPVAAEVYGTERQPRTHYYAVAVVKKGGSFQLNELQGLKSCHTGLRRTAGWNVPIGTLRPFLNWTGPPEPIEAAVARFFSASCVPGADKGQFPNLCRLCAGTGENKCAFSSQEPYFSYSGAFKCLRDGAGDVAFIRESTVFEDLSDEAERDEYELLCPDNTRKPVDKFKDCHLARVPSHAVVARSVNGKEDAIWNLLRQAQEKFGKDKSPKFQLFGSPSGQKDLLFKDSAIGFSRVPPRIDSGLYLGSGYFTAIQNLRKSEEEVAARRARVVWCAVGEQELRKCNQWSGLSEGSVTCSSASTTEDCIALVLKGEADAMSLDGGYVYTAGKCGLVPVLAENYKSQQSSDPDPNCVDRPVEGYLAVAVVRRSDTSLTWNSVKGKKSCHTAVDRTAGWNIPMGLLFNQTGSCKFDEYFSQSCAPGSDPRSNLCALCIGDEQGENKCVPNSNERYYGYTGAFRCLAENAGDVAFVKDVTVLQNTDGNNNEAWAKDLKLADFALLCLDGKRKPVTEARSCHLAMAPNHAVVSRMDKVERLKQVLLHQQAKFGRNGSDCPDKFCLFQSETKNLLFNDNTECLARLHGKTTYEKYLGPQYVAGITNLKKCSTSPLLEACEFLRK", "modifications": "recombinant, Aspergillus niger"}},
  "system": "Pseudomonas aeruginosa (PAO1)",
  "test": "Plate based peg-lid crystal violet biofilm formation assay (Moskowitz)",
  "type": "cell-based",
  "conditions": "for detergent induced biofilm formation, effect of concomitant rhLactoferrin: 3 mg/ml rhLactoferrin",
  "protocol": "Biofilm growth is determined using the plate based assay described by Moskowitz et al [Moskowitz, S. M., J. M. Foster, J. Emerson, et al., Clinically Feasible Biofilm Susceptibility Assay for Isolates of Pseudomonas Aeruginosa from Patients with Cystic Fibrosis. J Clin Microbiol, 2004. 42(5): p. 1915-22]. Pseudomonas aeruginosa (PAO1) cultures are grown to log phase (OD600=0.5) and 100 μl of culture is mixed with 25 μl of test 5× test substance and placed in 96 well flat bottom plates (Nalgene Nunc International, Rochester, N.Y.). A lid containing 96 polystyrene pegs (Nunc, TSP 96 well micro titer plate lid) is placed on top and the pegs are suspended in the wells. The lid is loosely fixed to the plate using a strip of parafilm (Menasha, Wis.). The plate is incubated without shaking at 37° C. for 20 hours at which time the lid containing the pegs is carefully removed from the 96 well culture plate and rinsed 3 times in sterile water. The pegs are placed in another 96 well plate containing Gram Crystal Violet (CV) (20 g/L CV, 8 g/L Ammonium Oxalate, 2% ethanol) for 15 min and then rinsed in sterile water three times to remove unbound crystal violet. The pegs are then immersed in a 96 well plate containing 200 ul of 100% EtOH for 15 minutes. The lid containing the pegs is removed from the eluted crystal violet and is read at 595 nm using a plate reader (Microplate Reader 680, Bio-Rad Hercules, Calif.).\nThese mutants are used as negative controls in each of the experiments to determine background signal above the blank.\nThe concentration of baby shampoo/chemical surfactant used for the clinical study was determined through in-vitro testing on planktonic pseudomonas aeruginosa and pre-formed pseudomonas aeruginosa biofilms. Bacterial and biofilm growth inhibition was determined using the plate based assay described in Moskowitz et al., (Clinically feasible biofilm susceptibility assay for isolates of Pseudomonas aeruginosa from patients with cystic fibrosis. J. Clinical Microbiology 2004; 42:1915-22). Briefly, PAO1 Pseudomonas aeruginosa bacterial strains were grown overnight. The following morning the culture was diluted to an OD600=0.1 with Luria-Bertani broth (LB) and the sample again diluted 1:100 in LB. […] At the completion of the incubation the lid containing the pegs was removed and processed for biofilm detection while the 96 well plate was analyzed for bacterial growth by determination of absorbance at 600 nm. […] The peg lid was then discarded and the eluted crystal violate was read on a microtiter plate reader (Microplate Reader 680, Bio-Rad Hercules, Calif.) at an optical density of 595 nm (OD595). […] Quantification of residual biofilms was performed as described above.",
  "data": [
    {"molecule": "B1", "values": [
      {"measurement": "detergent induced biofilm formation, effect of concomitant rhLactoferrin", "setting": "induction by Curosurf, FIG. 5 bottom panel", "result": "blunts the induction of biofilm formation"},
      {"measurement": "detergent induced biofilm formation, effect of concomitant rhLactoferrin", "setting": "induction by Johnson and Johnson Baby Shampoo, FIG. 5 top panel", "result": "blunts the induction of biofilm formation"},
      {"measurement": "detergent induced biofilm formation, effect of rhLactoferrin", "setting": "detergents in general, FIGS. 4 and 5", "result": "inhibits detergent induced biofilm formation"},
      {"measurement": "induction of biofilm formation by subtherapeutic concentrations of antibiotics, effect of added rhLactoferrin", "setting": "subtherapeutic Cephalosporins and aminoglycosides, FIG. 3", "result": "blunted"}
    ]}
  ]
}
